Laboratory results reported in US20240402194A1 (QATAR FOUNDATION FOR EDUCATION SCIENCE AND COMMUNITY …, published 2024).

Key:
[1] = biological target: α-synuclein aggregates from mouse (mouse, UniProt O55042 1-140); test: filter retardation assay
[2] = biological target: mouse α-synuclein (WT-α-syn from mouse) (mouse, UniProt O55042 1-140); test: method not named in the sentence (Western blot in the same paragraph)
[3] = biological target: β-synuclein (UniProt Q16143 1-134); test: Western blot
[4] = biological target: γ-synuclein (UniProt O76070 1-127); test: Western blot
Chain of γ-synuclein (O76070 whole entry): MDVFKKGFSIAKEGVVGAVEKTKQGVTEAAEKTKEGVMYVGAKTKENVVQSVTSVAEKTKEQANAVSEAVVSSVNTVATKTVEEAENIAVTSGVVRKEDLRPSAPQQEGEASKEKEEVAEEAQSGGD

Chain of β-synuclein (Q16143 whole entry): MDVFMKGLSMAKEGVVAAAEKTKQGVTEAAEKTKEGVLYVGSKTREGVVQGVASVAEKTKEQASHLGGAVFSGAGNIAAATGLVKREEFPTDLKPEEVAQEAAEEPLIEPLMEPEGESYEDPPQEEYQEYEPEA

binding result [1]	binding result [2]	binding result [3]	binding result [4]	Binder
binds	binds			monoclonal antibody 2A1 (antibody, mouse IgG1, kappa, V domains shown, also called mAb 2A1) VH: QVQLQQPGAELVKPGASVKMSCKASGYTFSSYNLHWVKQTPGQGLEWIGAIYPGNGDTSYNQKFKGKATLTADKSSSTAYMQLSSLTSEDSAVYYCTRRDYYGSRGFAYWGQGTLVTVSA VL: DIQMNQSPSSLSASLGDTITITCHASQNINVWLSWYQQKPGNIPKLLIYKASNLHTGVPSRFSGSRSGTGFTLTISSLQPEDIATYYCQQGQSFPWTFGGGTKLEIKR
		no binding	no binding	monoclonal antibody 4B1 produced by the hybridoma 4B1, ATCC Patent Deposit Number PTA-127017 (antibody, mouse IgG1, kappa, V domains shown, also called mAb 4B1) VH: EVKLVESGGGLVQPGGSLKLSCAASGITFSSYTMSWVRQTPEKRLEWVGYISNGGGRTYYPDTVKGRFTISRDNAKNTLYLQMSSLKSEDTAMYYCARQITTAMGYYYAMDYWGQGTSVTVSS VL: DVVMTQTPLSLPVSLGDQASISCRSSQSLVHSNGNTYLHWYLQKPGQSPKLLISKVSNRFSGVPDRFSGSGSGTDFTLKISRVEAEDLGVYFCSQSTHVPLTFGAGTKLELKR
